In patent publication US20140302123A1:

Target: PTPN4 as expressed in U373MG cells (human) (UniProt P29074)
Experiment: cell-based or functional assay

Chain of PTPN4 as expressed in U373MG cells (human) (P29074 whole entry): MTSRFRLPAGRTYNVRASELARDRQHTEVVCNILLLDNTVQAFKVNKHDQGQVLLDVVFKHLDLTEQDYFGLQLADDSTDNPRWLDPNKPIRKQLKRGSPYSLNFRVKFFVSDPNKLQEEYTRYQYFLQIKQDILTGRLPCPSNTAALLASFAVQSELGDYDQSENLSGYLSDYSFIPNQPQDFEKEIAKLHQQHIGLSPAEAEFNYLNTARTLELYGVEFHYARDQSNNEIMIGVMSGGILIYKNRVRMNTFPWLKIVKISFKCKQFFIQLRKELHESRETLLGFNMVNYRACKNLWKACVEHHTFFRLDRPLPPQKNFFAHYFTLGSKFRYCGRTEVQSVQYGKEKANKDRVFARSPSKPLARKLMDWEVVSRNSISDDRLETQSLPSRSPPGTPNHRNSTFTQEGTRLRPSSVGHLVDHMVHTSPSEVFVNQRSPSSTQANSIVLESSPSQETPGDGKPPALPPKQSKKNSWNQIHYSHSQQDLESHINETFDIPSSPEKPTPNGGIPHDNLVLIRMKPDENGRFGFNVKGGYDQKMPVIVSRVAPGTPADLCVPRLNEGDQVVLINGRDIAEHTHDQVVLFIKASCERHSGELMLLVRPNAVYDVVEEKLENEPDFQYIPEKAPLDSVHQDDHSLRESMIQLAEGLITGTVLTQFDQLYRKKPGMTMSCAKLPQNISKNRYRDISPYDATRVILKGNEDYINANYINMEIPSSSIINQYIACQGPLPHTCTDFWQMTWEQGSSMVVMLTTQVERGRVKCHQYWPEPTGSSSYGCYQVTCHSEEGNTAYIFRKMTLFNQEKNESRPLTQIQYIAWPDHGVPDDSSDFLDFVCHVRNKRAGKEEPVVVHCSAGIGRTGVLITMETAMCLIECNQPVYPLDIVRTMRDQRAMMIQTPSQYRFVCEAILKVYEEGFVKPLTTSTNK

Tat-conjugated, FITC-labelled GluN2A-16 (peptide)
cell death (% of dead cells among peptide loaded cells), U373MG, 3 h, 25 microM, propidium iodide: 29%
